Source: US20070036786A1 (published 2007)
Numbering of substitutions follows the chain as printed.

B1: hu3G8VH-1/hu3G8VL-1 (antibody, human IgG1, kappa)
heavy: not shown
light: DIVMTQSPDSLAVSLGERATINCKASQSVDFDGDSFMNWYQQKPGQPPKLLIYTTSNLESGVPDRFSGSGSGTDFTLTISSLQAEDVAVYYCQQSNEDPYTFGQGTKLEIKRTVAAPSVFIFPPSDEQLKSGTASVVCLLNNFYPREAKVQWKVDNALQSGNSQESVTEQDSKDSTYSLSSTLTLSKADYEKHKVYACEVTHQGLSSPVTKSFNRGEC
notes: Heavy chain Hu3G8VH-1G1, light chain Hu3G8VL-1K; also called Hu3G8-1.1
B2: hu3G8VH-20/hu3G8VL-1 (antibody)
VH: QVTLRESGPALVKPTQTLTLTCTFSGFSLSTSGVGVGWIRQPPGKALEWLAHIWWDDDKRYSPSLKSRLTISKDTSKNQVVLTMTNMDPVDTATYYCARINPAWFAYWGQGTLVTVSS
light: B1 light
notes: VH fused to human Cγ1 constant region
B3: hu3G8VH-2/hu3G8VL-1 (antibody)
VH: B2 VH with R5K, V34M, S62N, S64A
light: B1 light
notes: as for B2
B4: hu3G8VH-3/hu3G8VL-1 (antibody)
VH: B2 VH with S30R, V34M, S62N, S64A
light: B1 light
notes: as for B2
B5: hu3G8VH-4/hu3G8VL-1 (antibody)
VH: B2 VH with V34M, S62N, S64A, R99Q, A106D
light: B1 light
notes: as for B2
B6: hu3G8VH-5/hu3G8VL-1 (antibody)
VH: B2 VH with V34M, S62N, S64A, R99Q
light: B1 light
notes: VH fused to human Cγ1 constant region (glycosylated form); also called Hu3G8-5.1
B7: hu3G8VH-6/hu3G8VL-1 (antibody)
VH: B2 VH with S62N, S64A, A106D
light: B1 light
notes: as for B2
B8: hu3G8VH-8/hu3G8VL-1 (antibody)
VH: B2 VH with V34M, S62N, S64A, W104Y
light: B1 light
notes: as for B2
B9: hu3G8VH-12/hu3G8VL-1 (antibody)
VH: B2 VH with V34M
light: B1 light
notes: as for B2
B10: hu3G8VH-14/hu3G8VL-1 (antibody)
VH: B2 VH with V34M, D56N, S62N, S64A
light: B1 light
notes: as for B2
B11: hu3G8VH-16/hu3G8VL-1 (antibody)
VH: B2 VH with V34M, S62N, S64A, R99K
light: B1 light
notes: as for B2
B12: hu3G8VH-17/hu3G8VL-1 (antibody)
VH: B2 VH with V34M, S62N, S64A, R99A
light: B1 light
notes: as for B2
B13: hu3G8VH-18/hu3G8VL-1 (antibody)
VH: B2 VH with V34M, S62N, S64A, R99H
light: B1 light
notes: as for B2
B14: hu3G8VH-19/hu3G8VL-1 (antibody)
VH: B2 VH with V34M, S62N, S64A, R99Q, W104Y
light: B1 light
notes: as for B2
B15: hu3G8VH-23/hu3G8VL-1 (antibody)
VH: B2 VH with R99K, W104Y
light: B1 light
notes: as for B2
B16: hu3G8VH-24/hu3G8VL-1 (antibody)
VH: B2 VH with R99A, W104Y
light: B1 light
notes: as for B2
B17: hu3G8VH-25/hu3G8VL-1 (antibody)
VH: B2 VH with R99H, W104Y
light: B1 light
notes: as for B2
B18: hu3G8VH-26/hu3G8VL-1 (antibody)
VH: B2 VH with R99Q, W104Y
light: B1 light
notes: as for B2
B19: hu3G8VH-27/hu3G8VL-1 (antibody)
VH: B2 VH with R99K, W104Y, A106D
light: B1 light
notes: as for B2
B20: hu3G8VH-28/hu3G8VL-1 (antibody)
VH: B2 VH with R99A, W104Y, A106D
light: B1 light
notes: as for B2
B21: hu3G8VH-29/hu3G8VL-1 (antibody)
VH: B2 VH with R99H, W104Y, A106D
light: B1 light
notes: as for B2
B22: hu3G8VH-30/hu3G8VL-1 (antibody)
VH: B2 VH with R99Q, W104Y, A106D
light: B1 light
notes: as for B2
B23: hu3G8VH-31/hu3G8VL-1 (antibody)
VH: B2 VH with V2I, R5K, A10T
light: B1 light
notes: as for B2
B24: hu3G8VH-34/hu3G8VL-1 (antibody)
VH: B2 VH with V2I, R5K, A10T, W104Y
light: B1 light
notes: as for B2
B25: hu3G8VH-35/hu3G8VL-1 (antibody)
VH: B2 VH with V2I, R5K, A10T, R99Q, W104Y
light: B1 light
notes: as for B2
B26: hu3G8VH-36/hu3G8VL-1 (antibody)
VH: B2 VH with V2I, R5K, A10T, H52L, R99Q, W104Y, A106D
light: B1 light
notes: as for B2
B27: hu3G8VH-37/hu3G8VL-1 (antibody)
VH: B2 VH with V2I, R5K, A10T, H52L, R99K, W104Y
light: B1 light
notes: as for B2
B28: hu3G8VH-40/hu3G8VL-1 (antibody)
VH: B2 VH with V2I, R5K, A10T, W54F
light: B1 light
notes: as for B2
B29: hu3G8VH-42/hu3G8VL-1 (antibody)
VH: B2 VH with V2I, R5K, A10T, S72T
light: B1 light
notes: as for B2
B30: hu3G8VH-43/hu3G8VL-1 (antibody)
VH: B2 VH with V2I, R5K, A10T, S72T, W104Y
light: B1 light
notes: as for B2
B31: hu3G8VH-44/hu3G8VL-1 (antibody)
VH: B2 VH with V2I, R5K, A10T, S72T, R99H, W104Y, A106D
light: B1 light
notes: as for B2
B32: hu3G8VH-45/hu3G8VL-1 (antibody)
VH: B2 VH with V2I, R5K, A10T, S72T, R99Q, W104Y, A106D
light: B1 light
notes: as for B2
B33: hu3G8VH-22/hu3G8VL-1 (antibody)
VH: QVTLRESGPALVKPTQTLTLTCTFSGFSLSTSGVGVGWIRQPPGKALEWLAHIWWDDDKRYSPSLKSRLTISKDTSKNQVVLTMTNMDPVDTATYYCARINPAYFAYWGQGTLVTVS
light: B1 light
notes: VH fused to human Cγ1 constant region (glycosylated form)
B34: chimeric 3G8 antibody (ch3G8VH/ch3G8VL) (antibody, V domains shown)
VH: QVTLKESGPGILQPSQTLSLTCSFSGFSLRTSGMGVGWIRQPSGKGLEWLAHIWWDDDKRYNPALKSRLTISKDTSSNQVFLKIASVDTADTATYYCAQINPAWFAYWGQGTLVTVSS
VL: DTVLTQSPASLAVSLGQRATISCKASQSVDFDGDSFMNWYQQKPGQPPKLLIYTTSNLESGIPARFSASGSGTDFTLNIHPVEEEDTATYYCQQSNEDPYTFGGGTKLEIK
notes: Mouse 3G8 variable domains (VH FR4 ala to ser) on human Cγ1 and Cκ constant regions; also called ch3G8-γ1

Target: T1, soluble human CD16A (sCD16A) (human, UniProt P08637 17-203)
T1 construct: CD16A truncated just prior to the transmembrane region, expressed in HEK-293; The last seven residues come from vector pCDNA3.1; also called soluble form of human CD16A
T1 sequence (P08637 other isoform, or with tags, fused parts or gaps limits assumed): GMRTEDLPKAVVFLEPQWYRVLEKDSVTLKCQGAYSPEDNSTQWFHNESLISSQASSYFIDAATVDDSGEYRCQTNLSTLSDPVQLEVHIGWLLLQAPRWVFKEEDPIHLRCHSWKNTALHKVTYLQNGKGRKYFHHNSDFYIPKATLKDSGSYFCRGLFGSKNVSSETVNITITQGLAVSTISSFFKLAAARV
Assay: ELISA, captured sCD16A
Protocol: The plate was washed and dilutions of recombinant antibodies starting at 0.5 μg/ml in PBS-T-BSA were then added and incubated for 1 hr at room temp. Binding of recombinant antibodies to the captured sCD16A was then measured using an anti-human IgG-HRP conjugate and TMB substrate. After stopping color development using dilute sulfuric acid, the plate was read at 450 nm.

| Binder | binding result |
| --- | --- |
| B1 | binds |
| B2 | binds |
| B3 | binds |
| B4 | binds |
| B5 | binds |
| B6 | binds |
| B7 | binds |
| B8 | binds |
| B9 | binds |
| B10 | binds |
| B11 | binds |
| B12 | binds |
| B13 | binds |
| B14 | binds |
| B15 | binds |
| B16 | binds |
| B17 | binds |

| Binder | binding result |
| --- | --- |
| B18 | binds |
| B19 | binds |
| B20 | binds |
| B21 | binds |
| B22 | binds |
| B23 | binds |
| B24 | binds |
| B25 | binds |
| B26 | binds |
| B27 | binds |
| B28 | binds |
| B29 | binds |
| B30 | binds |
| B31 | binds |
| B32 | binds |
| B33 | binds |
| B34 | binds |
